# From the supplement of paper PMC7125110
# ± gives the standard error. This sample holds only a part of the variants without activity.
# B1: glmS ribozyme (parent)
# chain: AUAAAAGCGCCAGAACUACAGAAAUGUAGUUGACGAGGAGGAGGUUUAUCGAAUUUUCGGCGGAUGCCUCCAAA
# Assays:
# Conditions in all cases: with glucosamine-6-phosphate
# glucosamine-6-phosphate [1] = variants of: B1; test: self-cleavage kobs at 640 uM GlcN6P; higher = faster cleavage; RNA array
# How it was run: (§1)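 A hybridised Cy3 probe tracked barcoded ribozyme variants, transcribed in situ by E. coli RNA polymerase on sequenced MiSeq chips, at 37 °C. The variants received 40 μM to 10 mM glucosamine-6-phosphate in HEPES/KCl/Mg(OAc)2 buffer. kobs came from decay fits and kcat and KM from weighted Michaelis–Menten fits.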
# glucosamine-6-phosphate [2] = variants of: B1; test: self-cleavage kobs at 2500 uM GlcN6P; higher = faster cleavage; RNA array
# How it was run: as §1
# glucosamine-6-phosphate [3] = variants of: B1; test: self-cleavage kobs at 160 uM GlcN6P; higher = faster cleavage; RNA array
# How it was run: as §1
# glucosamine-6-phosphate [4] = variants of: B1; test: self-cleavage kobs at 10000 uM GlcN6P; higher = faster cleavage; RNA array
# How it was run: as §1
variant,measurement,setting,value
A6C C16U G60U,self-cleavage kobs at 640 uM GlcN6P,glucosamine-6-phosphate [1],< 1e-05 s⁻¹
same,self-cleavage kobs at 2500 uM GlcN6P,glucosamine-6-phosphate [2],< 1e-05 s⁻¹
A6C C11A U47C,self-cleavage kobs at 640 uM GlcN6P,glucosamine-6-phosphate [1],< 1e-05 s⁻¹
same,self-cleavage kobs at 2500 uM GlcN6P,glucosamine-6-phosphate [2],< 1e-05 s⁻¹
A6G U30A G41A C68U,self-cleavage kobs at 640 uM GlcN6P,glucosamine-6-phosphate [1],< 1e-05 s⁻¹
G7C U30G A64G,self-cleavage kobs at 640 uM GlcN6P,glucosamine-6-phosphate [1],< 1e-05 s⁻¹
A6G U46C U47A,self-cleavage kobs at 640 uM GlcN6P,glucosamine-6-phosphate [1],< 1e-05 s⁻¹
G44U G59A G60A,self-cleavage kobs at 160 uM GlcN6P,glucosamine-6-phosphate [3],< 1e-05 s⁻¹
same,self-cleavage kobs at 640 uM GlcN6P,glucosamine-6-phosphate [1],< 1e-05 s⁻¹
same,self-cleavage kobs at 2500 uM GlcN6P,glucosamine-6-phosphate [2],< 1e-05 s⁻¹
G43U G59U G63U C68A,self-cleavage kobs at 160 uM GlcN6P,glucosamine-6-phosphate [3],< 1e-05 s⁻¹
same,self-cleavage kobs at 640 uM GlcN6P,glucosamine-6-phosphate [1],< 1e-05 s⁻¹
same,self-cleavage kobs at 2500 uM GlcN6P,glucosamine-6-phosphate [2],< 1e-05 s⁻¹
G7U A36C A42C G66C,self-cleavage kobs at 640 uM GlcN6P,glucosamine-6-phosphate [1],< 1e-05 s⁻¹
A6G G9C G60C G63A C68U,self-cleavage kobs at 640 uM GlcN6P,glucosamine-6-phosphate [1],< 1e-05 s⁻¹
A1U U2G A3G C70A,self-cleavage kobs at 640 uM GlcN6P,glucosamine-6-phosphate [1],0.000245 ± 0.00011 s⁻¹
G43U G60U U69G,self-cleavage kobs at 160 uM GlcN6P,glucosamine-6-phosphate [3],< 1e-05 s⁻¹
same,self-cleavage kobs at 640 uM GlcN6P,glucosamine-6-phosphate [1],< 1e-05 s⁻¹
C67U C68U C71G,self-cleavage kobs at 160 uM GlcN6P,glucosamine-6-phosphate [3],7.37e-05 ± 2e-05 s⁻¹
G7C C8G G9C C19A C61A,self-cleavage kobs at 640 uM GlcN6P,glucosamine-6-phosphate [1],< 1e-05 s⁻¹
same,self-cleavage kobs at 2500 uM GlcN6P,glucosamine-6-phosphate [2],< 1e-05 s⁻¹
U56C C67G,self-cleavage kobs at 160 uM GlcN6P,glucosamine-6-phosphate [3],< 1e-05 s⁻¹
same,self-cleavage kobs at 640 uM GlcN6P,glucosamine-6-phosphate [1],< 1e-05 s⁻¹
same,self-cleavage kobs at 10000 uM GlcN6P,glucosamine-6-phosphate [4],< 1e-05 s⁻¹
G7U C10U A52U,self-cleavage kobs at 640 uM GlcN6P,glucosamine-6-phosphate [1],< 1e-05 s⁻¹
G44A A48G G51U G59A,self-cleavage kobs at 160 uM GlcN6P,glucosamine-6-phosphate [3],< 1e-05 s⁻¹
same,self-cleavage kobs at 2500 uM GlcN6P,glucosamine-6-phosphate [2],< 1e-05 s⁻¹
G43U C61G C71U,self-cleavage kobs at 160 uM GlcN6P,glucosamine-6-phosphate [3],< 1e-05 s⁻¹
U47C G59A,self-cleavage kobs at 160 uM GlcN6P,glucosamine-6-phosphate [3],< 1e-05 s⁻¹
G7C C10U G43U,self-cleavage kobs at 640 uM GlcN6P,glucosamine-6-phosphate [1],< 1e-05 s⁻¹
U49C G51C G60C C68U,self-cleavage kobs at 160 uM GlcN6P,glucosamine-6-phosphate [3],< 1e-05 s⁻¹
same,self-cleavage kobs at 640 uM GlcN6P,glucosamine-6-phosphate [1],< 1e-05 s⁻¹
same,self-cleavage kobs at 2500 uM GlcN6P,glucosamine-6-phosphate [2],< 1e-05 s⁻¹
A6C C16A U31C,self-cleavage kobs at 640 uM GlcN6P,glucosamine-6-phosphate [1],< 1e-05 s⁻¹
same,self-cleavage kobs at 2500 uM GlcN6P,glucosamine-6-phosphate [2],< 1e-05 s⁻¹
G7C A15U G43A A48G C67A,self-cleavage kobs at 640 uM GlcN6P,glucosamine-6-phosphate [1],< 1e-05 s⁻¹
same,self-cleavage kobs at 2500 uM GlcN6P,glucosamine-6-phosphate [2],< 1e-05 s⁻¹
G60U A64U C68U,self-cleavage kobs at 160 uM GlcN6P,glucosamine-6-phosphate [3],< 1e-05 s⁻¹
same,self-cleavage kobs at 640 uM GlcN6P,glucosamine-6-phosphate [1],< 1e-05 s⁻¹
same,self-cleavage kobs at 2500 uM GlcN6P,glucosamine-6-phosphate [2],< 1e-05 s⁻¹
G7U C8A C10U U46C A52U,self-cleavage kobs at 640 uM GlcN6P,glucosamine-6-phosphate [1],< 1e-05 s⁻¹
G7A U56G U69A,self-cleavage kobs at 640 uM GlcN6P,glucosamine-6-phosphate [1],0.00091 ± 0.00042 s⁻¹
G7C A36C U56A,self-cleavage kobs at 640 uM GlcN6P,glucosamine-6-phosphate [1],< 1e-05 s⁻¹
G51U U56C U57C G63U,self-cleavage kobs at 160 uM GlcN6P,glucosamine-6-phosphate [3],< 1e-05 s⁻¹
same,self-cleavage kobs at 640 uM GlcN6P,glucosamine-6-phosphate [1],< 1e-05 s⁻¹
same,self-cleavage kobs at 2500 uM GlcN6P,glucosamine-6-phosphate [2],< 1e-05 s⁻¹
same,self-cleavage kobs at 10000 uM GlcN6P,glucosamine-6-phosphate [4],< 1e-05 s⁻¹
G51A A52U,self-cleavage kobs at 160 uM GlcN6P,glucosamine-6-phosphate [3],< 1e-05 s⁻¹
G44C C61G,self-cleavage kobs at 160 uM GlcN6P,glucosamine-6-phosphate [3],< 1e-05 s⁻¹
same,self-cleavage kobs at 640 uM GlcN6P,glucosamine-6-phosphate [1],< 1e-05 s⁻¹
same,self-cleavage kobs at 10000 uM GlcN6P,glucosamine-6-phosphate [4],< 1e-05 s⁻¹
A53G G60A G66C,self-cleavage kobs at 160 uM GlcN6P,glucosamine-6-phosphate [3],< 1e-05 s⁻¹
C61G A64U U65A C68U,self-cleavage kobs at 160 uM GlcN6P,glucosamine-6-phosphate [3],< 1e-05 s⁻¹
same,self-cleavage kobs at 640 uM GlcN6P,glucosamine-6-phosphate [1],< 1e-05 s⁻¹
A6G G51C A53U C67U,self-cleavage kobs at 640 uM GlcN6P,glucosamine-6-phosphate [1],< 1e-05 s⁻¹
A53G A64U U69G,self-cleavage kobs at 160 uM GlcN6P,glucosamine-6-phosphate [3],0.000191 ± 6.9e-05 s⁻¹
same,self-cleavage kobs at 640 uM GlcN6P,glucosamine-6-phosphate [1],0.000772 ± 0.00022 s⁻¹
same,self-cleavage kobs at 2500 uM GlcN6P,glucosamine-6-phosphate [2],0.000517 ± 0.00019 s⁻¹
U45C A53C C67U,self-cleavage kobs at 160 uM GlcN6P,glucosamine-6-phosphate [3],< 1e-05 s⁻¹
same,self-cleavage kobs at 640 uM GlcN6P,glucosamine-6-phosphate [1],5.23e-05 ± 1.6e-05 s⁻¹
same,self-cleavage kobs at 2500 uM GlcN6P,glucosamine-6-phosphate [2],6.03e-05 ± 1.8e-05 s⁻¹
U45C G62U,self-cleavage kobs at 160 uM GlcN6P,glucosamine-6-phosphate [3],< 1e-05 s⁻¹
same,self-cleavage kobs at 640 uM GlcN6P,glucosamine-6-phosphate [1],< 1e-05 s⁻¹
same,self-cleavage kobs at 2500 uM GlcN6P,glucosamine-6-phosphate [2],< 1e-05 s⁻¹
same,self-cleavage kobs at 10000 uM GlcN6P,glucosamine-6-phosphate [4],< 1e-05 s⁻¹
G7A G40U U45G C58G,self-cleavage kobs at 640 uM GlcN6P,glucosamine-6-phosphate [1],< 1e-05 s⁻¹
same,self-cleavage kobs at 2500 uM GlcN6P,glucosamine-6-phosphate [2],< 1e-05 s⁻¹
G44C G51U C68G,self-cleavage kobs at 160 uM GlcN6P,glucosamine-6-phosphate [3],< 1e-05 s⁻¹
A6C G38A C50G C67U,self-cleavage kobs at 640 uM GlcN6P,glucosamine-6-phosphate [1],0.000113 ± 4.8e-05 s⁻¹
same,self-cleavage kobs at 2500 uM GlcN6P,glucosamine-6-phosphate [2],7.23e-05 ± 1.8e-05 s⁻¹
same,self-cleavage kobs at 10000 uM GlcN6P,glucosamine-6-phosphate [4],4.13e-05 ± 1.3e-05 s⁻¹
A6C C8U G38C G51C,self-cleavage kobs at 640 uM GlcN6P,glucosamine-6-phosphate [1],< 1e-05 s⁻¹
same,self-cleavage kobs at 2500 uM GlcN6P,glucosamine-6-phosphate [2],< 1e-05 s⁻¹
G7C A14U U56A,self-cleavage kobs at 640 uM GlcN6P,glucosamine-6-phosphate [1],< 1e-05 s⁻¹
same,self-cleavage kobs at 2500 uM GlcN6P,glucosamine-6-phosphate [2],< 1e-05 s⁻¹
U46G U49A C50A A64G,self-cleavage kobs at 160 uM GlcN6P,glucosamine-6-phosphate [3],< 1e-05 s⁻¹
same,self-cleavage kobs at 640 uM GlcN6P,glucosamine-6-phosphate [1],< 1e-05 s⁻¹
G51U A52G C58U G59A,self-cleavage kobs at 160 uM GlcN6P,glucosamine-6-phosphate [3],< 1e-05 s⁻¹
same,self-cleavage kobs at 640 uM GlcN6P,glucosamine-6-phosphate [1],< 1e-05 s⁻¹
same,self-cleavage kobs at 2500 uM GlcN6P,glucosamine-6-phosphate [2],< 1e-05 s⁻¹
G43U U69G,self-cleavage kobs at 160 uM GlcN6P,glucosamine-6-phosphate [3],< 1e-05 s⁻¹
same,self-cleavage kobs at 640 uM GlcN6P,glucosamine-6-phosphate [1],< 1e-05 s⁻¹
same,self-cleavage kobs at 10000 uM GlcN6P,glucosamine-6-phosphate [4],< 1e-05 s⁻¹
C58G C68G C71U,self-cleavage kobs at 160 uM GlcN6P,glucosamine-6-phosphate [3],9.65e-05 ± 2.3e-05 s⁻¹
G7U A33C U47A,self-cleavage kobs at 640 uM GlcN6P,glucosamine-6-phosphate [1],< 1e-05 s⁻¹
same,self-cleavage kobs at 2500 uM GlcN6P,glucosamine-6-phosphate [2],< 1e-05 s⁻¹
U45C A48U U65G,self-cleavage kobs at 160 uM GlcN6P,glucosamine-6-phosphate [3],< 1e-05 s⁻¹
G51C A53G,self-cleavage kobs at 160 uM GlcN6P,glucosamine-6-phosphate [3],< 1e-05 s⁻¹
same,self-cleavage kobs at 640 uM GlcN6P,glucosamine-6-phosphate [1],< 1e-05 s⁻¹
same,self-cleavage kobs at 2500 uM GlcN6P,glucosamine-6-phosphate [2],< 1e-05 s⁻¹
A6G G32C G51C,self-cleavage kobs at 640 uM GlcN6P,glucosamine-6-phosphate [1],< 1e-05 s⁻¹
G7C C10A G13A A33C,self-cleavage kobs at 640 uM GlcN6P,glucosamine-6-phosphate [1],< 1e-05 s⁻¹
same,self-cleavage kobs at 2500 uM GlcN6P,glucosamine-6-phosphate [2],< 1e-05 s⁻¹
same,self-cleavage kobs at 10000 uM GlcN6P,glucosamine-6-phosphate [4],< 1e-05 s⁻¹
A6C A33C A48C G60U,self-cleavage kobs at 640 uM GlcN6P,glucosamine-6-phosphate [1],< 1e-05 s⁻¹
G7A A48G A64U C70U,self-cleavage kobs at 640 uM GlcN6P,glucosamine-6-phosphate [1],< 1e-05 s⁻¹
A6U G9A C50U,self-cleavage kobs at 640 uM GlcN6P,glucosamine-6-phosphate [1],< 1e-05 s⁻¹
G7U C8U G40U G62C,self-cleavage kobs at 640 uM GlcN6P,glucosamine-6-phosphate [1],< 1e-05 s⁻¹
A52G G60A,self-cleavage kobs at 160 uM GlcN6P,glucosamine-6-phosphate [3],< 1e-05 s⁻¹
same,self-cleavage kobs at 10000 uM GlcN6P,glucosamine-6-phosphate [4],< 1e-05 s⁻¹
G7C A64C,self-cleavage kobs at 640 uM GlcN6P,glucosamine-6-phosphate [1],< 1e-05 s⁻¹
G44U G63U,self-cleavage kobs at 160 uM GlcN6P,glucosamine-6-phosphate [3],< 1e-05 s⁻¹
same,self-cleavage kobs at 640 uM GlcN6P,glucosamine-6-phosphate [1],< 1e-05 s⁻¹
same,self-cleavage kobs at 2500 uM GlcN6P,glucosamine-6-phosphate [2],< 1e-05 s⁻¹
same,self-cleavage kobs at 10000 uM GlcN6P,glucosamine-6-phosphate [4],< 1e-05 s⁻¹
U2C G35U C68U,self-cleavage kobs at 640 uM GlcN6P,glucosamine-6-phosphate [1],< 1e-05 s⁻¹
U65C G66C,self-cleavage kobs at 160 uM GlcN6P,glucosamine-6-phosphate [3],< 1e-05 s⁻¹
same,self-cleavage kobs at 640 uM GlcN6P,glucosamine-6-phosphate [1],< 1e-05 s⁻¹
same,self-cleavage kobs at 10000 uM GlcN6P,glucosamine-6-phosphate [4],< 1e-05 s⁻¹
A6G A36C G38C,self-cleavage kobs at 640 uM GlcN6P,glucosamine-6-phosphate [1],< 1e-05 s⁻¹
same,self-cleavage kobs at 10000 uM GlcN6P,glucosamine-6-phosphate [4],< 1e-05 s⁻¹
G7A G9U C68U,self-cleavage kobs at 640 uM GlcN6P,glucosamine-6-phosphate [1],< 1e-05 s⁻¹
U56A U69G,self-cleavage kobs at 160 uM GlcN6P,glucosamine-6-phosphate [3],5.23e-05 ± 1e-05 s⁻¹
same,self-cleavage kobs at 640 uM GlcN6P,glucosamine-6-phosphate [1],5.7e-05 ± 2e-05 s⁻¹
same,self-cleavage kobs at 2500 uM GlcN6P,glucosamine-6-phosphate [2],0.000127 ± 4.2e-05 s⁻¹
same,self-cleavage kobs at 10000 uM GlcN6P,glucosamine-6-phosphate [4],4.58e-05 ± 8.9e-06 s⁻¹
